Measured values reported in PMC4958592 (Molecular cell, 2016).

Target: methyltransferase domain of Mettl3 (MTD3, residues 357-580) (human, UniProt Q86U44 357-580)
Test: SEC-MALS

Sequence of methyltransferase domain of Mettl3 (MTD3, residues 357-580) (Q86U44 357-580): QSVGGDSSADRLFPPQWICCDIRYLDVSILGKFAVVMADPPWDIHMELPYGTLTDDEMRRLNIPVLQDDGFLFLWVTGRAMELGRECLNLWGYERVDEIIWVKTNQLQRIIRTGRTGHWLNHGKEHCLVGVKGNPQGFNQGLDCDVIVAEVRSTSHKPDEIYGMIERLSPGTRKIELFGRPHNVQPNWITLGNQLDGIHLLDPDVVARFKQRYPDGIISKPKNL

B1: methyltransferase domain of Mettl14 (MTD14, residues 111-456) (domain or fragment, human, UniProt Q9HCE5 111-456, looked up)
chain: QSLNPHNDYCQHFVDTGHRPQNFIRDVGLADRFEEYPKLRELIRLKDELIAKSNTPPMYLQADIEAFDIRELTPKFDVILLEPPLEEYYRETGITANEKCWTWDDIMKLEIDEIAAPRSFIFLWCGSGEGLDLGRVCLRKWGYRRCEDICWIKTNKNNPGKTKTLDPKAVFQRTKEHCLMGIKGTVKRSTDGDFIHANVDIDLIITEEPEIGNIEKPVEIFHIIEHFCLGRRRLHLFGRDSTIRPGWLTVGPTLTNSNYNAETYASYFSAPNSYLTGCTEEIERLRPKSPPPKSKSDRGGGAPRGGGRGGTSAGRGRERNRSNFRGERGGFRGGRGGAHRGGFPPR
  stoichiometry N: 1
